# From publication PMC9482650, “Quantitative fragmentomics allow affinity mapping of interactomes” (Nature Communications, 2022)
# T1: DFNB31_3, Q9P202
# T1 sequence (Q9P202 811-907, limits assumed, looked up): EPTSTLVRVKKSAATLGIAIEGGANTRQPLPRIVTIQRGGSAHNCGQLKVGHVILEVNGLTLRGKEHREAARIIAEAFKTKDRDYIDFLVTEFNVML
# T2: PARD3B_1, Q8TEW8
# T2 sequence (Q8TEW8 196-299, limits assumed, looked up): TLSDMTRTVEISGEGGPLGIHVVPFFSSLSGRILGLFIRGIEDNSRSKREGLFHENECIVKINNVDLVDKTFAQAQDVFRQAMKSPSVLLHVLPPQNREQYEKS
# T3: LIN7A, O14910
# T3 sequence (O14910 103-200, limits assumed, looked up): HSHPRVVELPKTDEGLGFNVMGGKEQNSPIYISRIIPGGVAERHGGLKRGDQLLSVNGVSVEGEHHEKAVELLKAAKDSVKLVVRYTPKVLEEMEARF
# T4: TX1BP3, O14907
# T4 sequence (O14907 10-122, limits assumed, looked up): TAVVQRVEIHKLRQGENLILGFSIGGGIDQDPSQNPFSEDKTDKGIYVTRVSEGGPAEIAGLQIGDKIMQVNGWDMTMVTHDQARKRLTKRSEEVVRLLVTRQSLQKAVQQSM
# T5: RADIL, Q96JH8
# T5 sequence (Q96JH8 971-1071, limits assumed, looked up): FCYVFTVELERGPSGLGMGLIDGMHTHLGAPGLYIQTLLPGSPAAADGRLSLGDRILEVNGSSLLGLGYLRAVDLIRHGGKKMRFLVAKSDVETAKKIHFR
# T6: TJP3_3, O95049
# T6 sequence (O95049 375-456, limits assumed, looked up): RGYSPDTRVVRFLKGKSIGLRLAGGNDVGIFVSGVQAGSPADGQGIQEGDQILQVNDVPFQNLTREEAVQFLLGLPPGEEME
# T7: SYNJ2BP, P57105
# T7 sequence (P57105 8-110, limits assumed, looked up): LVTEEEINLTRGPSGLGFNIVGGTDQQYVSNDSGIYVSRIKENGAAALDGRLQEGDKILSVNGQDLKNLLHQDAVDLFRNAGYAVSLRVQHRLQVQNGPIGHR
# T8: SNTG1, Q9NSN8
# T8 sequence (Q9NSN8 52-150, limits assumed, looked up): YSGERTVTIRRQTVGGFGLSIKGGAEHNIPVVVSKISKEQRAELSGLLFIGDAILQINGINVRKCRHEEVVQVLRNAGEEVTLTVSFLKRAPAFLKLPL
# T9: DLG3_2, Q92796
# T9 sequence (Q92796 221-321, limits assumed, looked up): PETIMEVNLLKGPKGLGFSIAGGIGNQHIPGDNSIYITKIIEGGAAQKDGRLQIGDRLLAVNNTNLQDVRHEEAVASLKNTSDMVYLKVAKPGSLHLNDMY
# T10: NHERF3_1, Q5T2W1
# T10 sequence (Q5T2W1 4-100, limits assumed, looked up): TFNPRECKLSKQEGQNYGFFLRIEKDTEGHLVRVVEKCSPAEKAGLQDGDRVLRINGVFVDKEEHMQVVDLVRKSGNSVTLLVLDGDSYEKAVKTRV
# T11: APBA3_1, O96018
# T11 sequence (O96018 389-490, limits assumed, looked up): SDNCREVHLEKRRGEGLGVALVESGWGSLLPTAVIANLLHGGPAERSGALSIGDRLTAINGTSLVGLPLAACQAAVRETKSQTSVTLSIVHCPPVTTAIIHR
# How the values were obtained:
# Assay in all cases: holdup assay
# Set-up in all cases: key: below the threshold = too weak to quantify, mostly under pKd 3.1 to 4
# Conditions in all cases: plain residues with an end cap or a label only (N-terminal biotin on a linker: ado-ado)
# DFNB31_3, Q9P202 = target: T1, DFNB31_3, Q9P202
# PARD3B_1, Q8TEW8 = target: T2, PARD3B_1, Q8TEW8
# FRMPD2_1, Q68DX3 = target: FRMPD2_1, Q68DX3
# Chain of FRMPD2_1, Q68DX3 (Q68DX3 770-861): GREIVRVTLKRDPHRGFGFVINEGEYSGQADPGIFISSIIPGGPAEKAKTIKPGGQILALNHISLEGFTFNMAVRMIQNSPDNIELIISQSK
# LIN7A, O14910 = target: T3, LIN7A, O14910
# NOS1, P29475 = target: NOS1, P29475
# Chain of NOS1, P29475 (P29475 9-101): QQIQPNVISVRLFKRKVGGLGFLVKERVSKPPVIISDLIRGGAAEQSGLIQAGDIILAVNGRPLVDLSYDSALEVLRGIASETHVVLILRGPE
# TX1BP3, O14907 = target: T4, TX1BP3, O14907
# FRMPD3, Q5JV73 = target: FRMPD3, Q5JV73
# Chain of FRMPD3, Q5JV73 (Q5JV73 12-100): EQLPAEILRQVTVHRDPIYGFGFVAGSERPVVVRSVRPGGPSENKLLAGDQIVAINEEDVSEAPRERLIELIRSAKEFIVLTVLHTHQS
# GRIP2_5, Q9C0E4 = target: GRIP2_5, Q9C0E4
# Chain of GRIP2_5, Q9C0E4 (Q9C0E4 544-642): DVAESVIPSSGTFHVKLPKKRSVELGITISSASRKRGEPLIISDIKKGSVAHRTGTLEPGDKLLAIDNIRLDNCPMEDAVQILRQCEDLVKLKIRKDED
# Inadl_9, Q8NI35 = target: Inadl_9, Q8NI35
# Chain of Inadl_9, Q8NI35 (Q8NI35 1530-1615): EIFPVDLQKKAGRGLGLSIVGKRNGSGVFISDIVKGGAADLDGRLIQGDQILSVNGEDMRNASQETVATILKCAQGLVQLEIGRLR
# RADIL, Q96JH8 = target: T5, RADIL, Q96JH8
# MAGI1_1, Q96QZ7 = target: MAGI1_1, Q96QZ7
# Chain of MAGI1_1, Q96QZ7 (Q96QZ7 1-106): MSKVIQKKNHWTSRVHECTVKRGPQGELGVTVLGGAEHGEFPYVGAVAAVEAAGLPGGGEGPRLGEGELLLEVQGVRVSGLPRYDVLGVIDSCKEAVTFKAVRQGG
# TJP3_3, O95049 = target: T6, TJP3_3, O95049
# DLG5_1, Q8TDM6 = target: DLG5_1, Q8TDM6
# Chain of DLG5_1, Q8TDM6 (Q8TDM6 617-713): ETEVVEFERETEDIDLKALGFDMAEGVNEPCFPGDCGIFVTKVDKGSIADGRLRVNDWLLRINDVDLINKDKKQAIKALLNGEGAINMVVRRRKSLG
# DLG2_2, Q15700 = target: DLG2_2, Q15700
# GORASP2, Q9H8Y8 = target: GORASP2, Q9H8Y8
# SYNJ2BP, P57105 = target: T7, SYNJ2BP, P57105
# IL16_3, Q14005 = target: IL16_3, Q14005
# Chain of IL16_3, Q14005 (Q14005 1107-1207): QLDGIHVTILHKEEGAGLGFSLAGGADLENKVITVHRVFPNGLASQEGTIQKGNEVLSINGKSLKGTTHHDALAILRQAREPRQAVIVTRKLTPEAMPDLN
# DLG2_3, Q15700 = target: DLG2_3, Q15700
# CASK, O14936 = target: CASK, O14936
# Chain of CASK, O14936 (O14936 487-570): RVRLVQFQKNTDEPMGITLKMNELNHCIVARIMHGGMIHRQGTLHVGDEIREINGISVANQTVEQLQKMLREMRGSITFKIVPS
# SNTG1, Q9NSN8 = target: T8, SNTG1, Q9NSN8
# FRMPD4, Q14CM0 = target: FRMPD4, Q14CM0
# Chain of FRMPD4, Q14CM0 (Q14CM0 67-160): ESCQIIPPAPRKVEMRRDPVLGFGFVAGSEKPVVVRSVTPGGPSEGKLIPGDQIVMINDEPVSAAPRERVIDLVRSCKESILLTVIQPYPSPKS
# DLG3_2, Q92796 = target: T9, DLG3_2, Q92796
# MAGI2_6, Q86UL8 = target: MAGI2_6, Q86UL8
# Chain of MAGI2_6, Q86UL8 (Q86UL8 1141-1229): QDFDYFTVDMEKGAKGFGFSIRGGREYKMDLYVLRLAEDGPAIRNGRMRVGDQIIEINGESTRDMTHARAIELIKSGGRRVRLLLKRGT
# IL16_4, Q14005 = target: IL16_4, Q14005
# Chain of IL16_4, Q14005 (Q14005 1229-1329): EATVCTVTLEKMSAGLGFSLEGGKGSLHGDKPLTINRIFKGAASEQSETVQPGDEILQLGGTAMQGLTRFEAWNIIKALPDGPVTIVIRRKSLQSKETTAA
# MAGI2_3, Q86UL8 = target: MAGI2_3, Q86UL8
# Chain of MAGI2_3, Q86UL8 (Q86UL8 600-682): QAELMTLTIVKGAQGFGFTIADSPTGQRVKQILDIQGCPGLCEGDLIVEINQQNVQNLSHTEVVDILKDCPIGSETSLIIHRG
# NHERF3_1, Q5T2W1 = target: T10, NHERF3_1, Q5T2W1
# APBA3_1, O96018 = target: T11, APBA3_1, O96018
"pKd (DFNB31_3, Q9P202)","pKd (PARD3B_1, Q8TEW8)","pKd (FRMPD2_1, Q68DX3)","pKd (LIN7A, O14910)","pKd (NOS1, P29475)","pKd (TX1BP3, O14907)","pKd (FRMPD3, Q5JV73)","pKd (GRIP2_5, Q9C0E4)","pKd (Inadl_9, Q8NI35)","pKd (RADIL, Q96JH8)","pKd (MAGI1_1, Q96QZ7)","pKd (TJP3_3, O95049)","pKd (DLG5_1, Q8TDM6)","pKd (DLG2_2, Q15700)","pKd (GORASP2, Q9H8Y8)","pKd (SYNJ2BP, P57105)","pKd (IL16_3, Q14005)","pKd (DLG2_3, Q15700)","pKd (CASK, O14936)","pKd (SNTG1, Q9NSN8)",Binder,also measured
below the threshold,below the threshold,below the threshold,below the threshold,below the threshold,3.97,below the threshold,below the threshold,below the threshold,below the threshold,below the threshold,below the threshold,below the threshold,3.67,below the threshold,4.42,below the threshold,4,below the threshold,3.65,"NLQEHSTTSV [RSBN1, Q5VWQ0]","pKd (FRMPD4, Q14CM0): below the threshold; pKd (DLG3_2, Q92796): 3.47; pKd (MAGI2_6, Q86UL8): 4.16; pKd (IL16_4, Q14005): below the threshold; pKd (MAGI2_3, Q86UL8): below the threshold; pKd (NHERF3_1, Q5T2W1): below the threshold; pKd (APBA3_1, O96018): below the threshold"
below the threshold,3.69,4.14,below the threshold,3.88,3.85,below the threshold,below the threshold,4.03,3.74,below the threshold,below the threshold,below the threshold,below the threshold,below the threshold,below the threshold,below the threshold,below the threshold,below the threshold,below the threshold,"HLRQQGSVEV [EPHB6, O15197]","pKd (FRMPD4, Q14CM0): below the threshold; pKd (DLG3_2, Q92796): below the threshold; pKd (MAGI2_6, Q86UL8): below the threshold; pKd (IL16_4, Q14005): below the threshold; pKd (MAGI2_3, Q86UL8): below the threshold; pKd (NHERF3_1, Q5T2W1): below the threshold; pKd (APBA3_1, O96018): below the threshold"
below the threshold,3.59,below the threshold,below the threshold,below the threshold,below the threshold,below the threshold,below the threshold,below the threshold,below the threshold,below the threshold,below the threshold,below the threshold,below the threshold,below the threshold,below the threshold,below the threshold,below the threshold,below the threshold,below the threshold,"DHLGGGGESM [TNRC6A, Q8NDV7]","pKd (FRMPD4, Q14CM0): below the threshold; pKd (DLG3_2, Q92796): below the threshold; pKd (MAGI2_6, Q86UL8): below the threshold; pKd (IL16_4, Q14005): below the threshold; pKd (MAGI2_3, Q86UL8): below the threshold; pKd (NHERF3_1, Q5T2W1): below the threshold; pKd (APBA3_1, O96018): below the threshold"
4.62,5,3.88,3.6,3.81,5.29,below the threshold,below the threshold,below the threshold,5.25,below the threshold,below the threshold,below the threshold,3.97,5.05,4.27,below the threshold,4.41,below the threshold,below the threshold,"REKKFFCTIL [GNG4, P50150]","pKd (FRMPD4, Q14CM0): 4.23; pKd (DLG3_2, Q92796): 4.13; pKd (MAGI2_6, Q86UL8): 4; pKd (IL16_4, Q14005): 3.49; pKd (MAGI2_3, Q86UL8): below the threshold; pKd (NHERF3_1, Q5T2W1): 5.43; pKd (APBA3_1, O96018): below the threshold"
below the threshold,below the threshold,below the threshold,below the threshold,below the threshold,3.87,3.55,below the threshold,below the threshold,below the threshold,below the threshold,below the threshold,below the threshold,below the threshold,below the threshold,4.33,below the threshold,below the threshold,below the threshold,below the threshold,"IPGKEFDTPL [PLCB1, Q9NQ66]","pKd (FRMPD4, Q14CM0): 4.95; pKd (DLG3_2, Q92796): below the threshold; pKd (MAGI2_6, Q86UL8): 3.49; pKd (IL16_4, Q14005): below the threshold; pKd (MAGI2_3, Q86UL8): below the threshold; pKd (NHERF3_1, Q5T2W1): 5.12; pKd (APBA3_1, O96018): below the threshold"
